Reference: patent publication US10836794B2, “Group of peptides for treating female sexual dysfunction” (“IVIX” Ltd., priority 2016, dated 2020)
Non-standard residues stand in square brackets, D forms with d. No end group written: not given here. Hyp = O=C(O)[C@@H]1C[C@@H](O)CN1

Tests used:
[1] = Stability of liquid pharmaceutical forms (peptide 0.2 %, benzalkonium chloride 0.01 %, water) during storage; single and total impurities; assay type: physicochemical
Text: Investigations of the Stability of Pharmaceutical Forms Containing Peptides Having the Property of Stimulating the Genital and Sexual Functions
This experiment investigated the stability of compositions containing peptides according to the invention. The results of the investigations are illustrated by the example of several peptides according to the invention containing hydroxyproline, in particular Thr-Lys-Hyp […], Thr-Lys-Hyp-Arg-Hyp (SEQ ID NO: 13), Thr-Lys-Hyp-Arg-Hyp-Phe and Thr-Lys-Hyp-Arg-Hyp-Gly-Hyp (SEQ ID NO: 14).
The peptides described in RU2507212 were also obtained, in particular Thr-Lys-Pro, Thr-Lys-Pro-Arg-Pro (SEQ ID NO: 6), Thr-Lys-Pro-Arg-Pro-Phe (SEQ ID NO: 7) and Thr-Lys-Pro-Arg-Pro-Gly-Pro (SEQ ID NO: 1).
From the compounds obtained, a liquid pharmaceutical form (a solution) was prepared, including the peptide and the preservative benzalkonium chloride with the following ratio of components: 0.2 and 0.01 mass %, respectively, water the rest. Samples were placed in storage at two temperature regimes, namely, +4° C. and +25° C. Investigation of the stability of the peptides was carried out after 1, 3, 6, 12, and 24 months of storage. In the investigation of the samples for stability, the quantity of single impurities and the total quantity of impurities were evaluated, testifying to the degradation of the peptides. The pharmaceutical requirements of the company for impurities are: any single impurity, not more than 1.5%; total content of impurities, not more than 3.0%. If the content of impurities exceeded the above indicated values, the pharmaceutical form was deemed to have failed the test for stability.

[2] = test system: female rats; experiment: Efficacy in vivo on preclinical model (Lordoz test): proceptive behavior of ovarioectomized, hormonally stimulated females; details: 100 mcg/rat, progesterone 0.5 mg/rat
Description: Investigation of the Efficacy of the Peptides of the Invention as a Means of Stimulating the Genital and Sexual Functions
In order to confirm the efficacy as a means of stimulating the genital and sexual functions, peptides according to the invention were synthesized, in particular the tripeptide Thr-Lys-Hyp, the pentapeptide Thr-Lys-Hyp-Arg-Hyp (SEQ ID NO: 12), and the hexapeptide Thr-Lys-Hyp-Arg-Hyp-Phe (SEQ ID NO: 13), and tests were performed as to the efficacy in vivo on the relevant preclinical model (Lordoz test). Furthermore, the efficacy of the group of peptides Thr-Lys-Pro, Thr-Lys-Pro-Arg-Pro (SEQ ID NO: 6), and Thr-Lys-Pro-Arg-Pro-Phe (SEQ ID NO: 7) was also investigated.
The efficacy of the aforementioned groups of peptides was investigated in a dose of 100 mcg/rat with respect to the sexual behavior of female rats. The sexual behavior was registered over the course of 0-16 days in ovarioectomized, hormonally stimulated females in the case of direct contact with sexually active males and in the case when no such contact was possible. […] The results testify to an increase in sexual motivation under the action of the peptides Thr-Lys-Hyp, Thr-Lys-Hyp-Arg-Hyp (SEQ ID NO: 12), and Thr-Lys-Hyp-Arg-Hyp-Phe (SEQ ID NO: 13).

[3] = stored for 1 month at +4° C., solution 0.2 mass % peptide, 0.01 mass % benzalkonium chloride
[4] = stored for 1 month at +25° C., solution 0.2 mass % peptide, 0.01 mass % benzalkonium chloride
[5] = stored for 12 months at +25° C.
[6] = stored for 24 months at +25° C.

| Substance | Single impurities [1, 3] [%] | Total impurities [1, 3] [%] | Single impurities [1, 4] [%] | Total impurities [1, 4] [%] | Single impurities ([1]; stored for 3 months at +4° C.) [%] | Total impurities ([1]; stored for 3 months at +4° C.) [%] | Single impurities ([1]; stored for 3 months at +25° C.) [%] | Total impurities ([1]; stored for 3 months at +25° C.) [%] | Single impurities ([1]; stored for 6 months at +4° C.) [%] | Total impurities ([1]; stored for 6 months at +4° C.) [%] | Single impurities ([1]; stored for 6 months at +25° C.) [%] | Total impurities ([1]; stored for 6 months at +25° C.) [%] | Single impurities ([1]; stored for 12 months at +4° C.) [%] | Total impurities ([1]; stored for 12 months at +4° C.) [%] | Single impurities ([1]; stored for 24 months at +4° C.) [%] | Total impurities ([1]; stored for 24 months at +4° C.) | Number of proceptive behavior acts ([2]; day 0 of giving the drug) | Number of proceptive behavior acts ([2]; day 5 of giving the drug) | Number of proceptive behavior acts ([2]; day 11 of giving the drug) | Number of proceptive behavior acts ([2]; day 16 of giving the drug) | also measured |
| --- | --- | --- | --- | --- | --- | --- | --- | --- | --- | --- | --- | --- | --- | --- | --- | --- | --- | --- | --- | --- | --- |
| Thr-Lys-Pro-Arg-Pro-Gly-Pro (TKPRPGP; not fully specified; printed as Thr-Lys-Pro-Arg-Pro-Gly-Pro) [heptopeptide “Selank”, a synthetic analogue of the endogenous peptide tuftsin, reference compound] | 0.05 | 0.17 | 0.065 | 0.13 | 0.07 | 0.2 | 0.9 | 1.2 | 0.8 | 1.4 | 1.7 | 3.1 | 1 | 1.7 | 2 | 3.7% |  |  |  |  |  |
| Thr-Lys-[Hyp] | 0.034 | 0.09 | 0.052 | 0.11 | 0.035 | 0.11 | 0.052 | 0.9 | 0.036 | 0.2 | 0.2 | 1 | 0.09 | 0.3 | 0.1 | 0.9% | 12 ± 4 | 25 ± 4 | 24 ± 4 | 26 ± 4 | Single impurities [1, 5]: 0.3%; Total impurities [1, 5]: 1.2%; Single impurities [1, 6]: 0.8%; Total impurities [1, 6]: 1.8% |
| Thr-Lys-Pro-Arg-Pro-Phe (TKPRPF; not fully specified; printed as Thr-Lys-Pro-Arg-Pro-Phe) [hexapeptide described in RU2507212, comparison peptide, reference compound] | 0.054 | 0.17 | 0.11 | 0.19 | 0.09 | 0.18 | 0.9 | 1.1 | 0.5 | 1.1 | 1.9 | 3.5 | 0.9 | 1.3 | 1.6 | 2,9% | 14 ± 4 | 16 ± 4 | 19 ± 4 | 26 ± 4 |  |
| Thr-Lys-Hyp-Arg-Hyp (TK[Hyp]R[Hyp]) [pentapeptide of the invention containing hydroxyproline] | 0.03 | 0.09 | 0.046 | 0.14 | 0.03 | 0.09 | 0.047 | 0.15 | 0.04 | 0.1 | 0.1 | 0.7 | 0.07 | 0.2 | 0.1 | 0.7% | 13 ± 4 | 38 ± 4 | 36 ± 4 | 36 ± 6 | Single impurities [1, 5]: 0.2%; Total impurities [1, 5]: 0.9%; Single impurities [1, 6]: 0.9%; Total impurities [1, 6]: 1.2% |
